According to the supplement of paper PMC9112550, “Optimization of the antimicrobial peptide Bac7 by deep mutational scanning” (BMC Biology, 2022):

Test system: Escherichia coli TOP10
Assay: shrunken log2 fold change of peptide-encoding DNA abundance (4.5 h post-induction vs induction); higher = less antimicrobial activity (less host growth inhibition)
Settings: time post-induction: 4.5 h; library: site-saturation at positions 5, 18, 19, 20
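Also: peptides expressed intracellularly from a pBAD plasmid library in pooled LB shake-flask culture, induced with 0.3% L-arabinose, DNA abundance read by NGS, three biological replicates, DESeq2 with apeglm shrinkage.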

| Sequence | shrunken log2 fold change |
| --- | --- |
| RRIRFRPPRLPRPRPRPCMVPRP | 1.01 |
| RRIRKRPPRLPRPRPRPTTSPRP | 0.321 |
| RRIRTRPPRLPRPRPRPLGDPRP | -0.109 |
| RRIRMRPPRLPRPRPRPPAWPRP | 1.22 |
| RRIRLRPPRLPRPRPRPIWEPRP | 0.0805 |
| RRIRARPPRLPRPRPRPKFVPRP | 0.301 |
| RRIRCRPPRLPRPRPRPNRLPRP | -0.00311 |
| RRIRFRPPRLPRPRPRPWKHPRP | -0.587 |
| RRIRNRPPRLPRPRPRPFLGPRP | -0.00194 |
| RRIRFRPPRLPRPRPRPFQVPRP | -0.309 |
| RRIRCRPPRLPRPRPRPWKHPRP | -0.264 |
| RRIRYRPPRLPRPRPRPTHPPRP | -0.311 |
| RRIRLRPPRLPRPRPRPTCHPRP | 0.000681 |
| RRIRPRPPRLPRPRPRPDYIPRP | -1.2 |
| RRIRGRPPRLPRPRPRPGQGPRP | 0.0965 |
| RRIRYRPPRLPRPRPRPAQNPRP | -0.0465 |
| RRIRNRPPRLPRPRPRPQTGPRP | -0.505 |
| RRIRRRPPRLPRPRPRPVNDPRP | 0.52 |
| RRIRERPPRLPRPRPRPQYQPRP | -1.12 |
| RRIRTRPPRLPRPRPRPSILPRP | -0.781 |
| RRIRARPPRLPRPRPRPTCWPRP | 0.651 |
| RRIRHRPPRLPRPRPRPGPRPRP | 0.417 |
| RRIRNRPPRLPRPRPRPHFHPRP | -0.529 |
| RRIRWRPPRLPRPRPRPTTNPRP | 0.217 |
| RRIRYRPPRLPRPRPRPVHVPRP | -1.35 |

| Sequence | shrunken log2 fold change |
| --- | --- |
| RRIRERPPRLPRPRPRPAYLPRP | -0.296 |
| RRIRYRPPRLPRPRPRPKANPRP | -0.512 |
| RRIRARPPRLPRPRPRPRMTPRP | 1.04 |
| RRIRTRPPRLPRPRPRPCLPPRP | -0.0953 |
| RRIRVRPPRLPRPRPRPIIGPRP | 0.0272 |
| RRIRKRPPRLPRPRPRPPLDPRP | 0.809 |
| RRIRFRPPRLPRPRPRPTPGPRP | 0.677 |
| RRIRQRPPRLPRPRPRPHQYPRP | -0.237 |
| RRIRVRPPRLPRPRPRPEIMPRP | -0.194 |
| RRIRHRPPRLPRPRPRPMFYPRP | -0.446 |
| RRIRCRPPRLPRPRPRPTVYPRP | -0.915 |
| RRIRFRPPRLPRPRPRPLGTPRP | 0.0158 |
| RRIRHRPPRLPRPRPRPRMHPRP | -0.0289 |
| RRIRSRPPRLPRPRPRPEGWPRP | 1.18 |
| RRIRSRPPRLPRPRPRPYNHPRP | -1.54 |
| RRIRERPPRLPRPRPRPDRVPRP | 0.00251 |
| RRIRSRPPRLPRPRPRPQNIPRP | -0.657 |
| RRIRSRPPRLPRPRPRPYGDPRP | -0.115 |
| RRIRIRPPRLPRPRPRPLNQPRP | -0.195 |
| RRIRFRPPRLPRPRPRPPRGPRP | 0.685 |
| RRIRHRPPRLPRPRPRPCWGPRP | -0.137 |
| RRIRMRPPRLPRPRPRPAIFPRP | 0.243 |
| RRIRARPPRLPRPRPRPRGYPRP | 0.166 |
| RRIRHRPPRLPRPRPRPTSQPRP | -0.00232 |
| RRIRMRPPRLPRPRPRPHSMPRP | -0.0253 |

| Sequence | shrunken log2 fold change |
| --- | --- |
| RRIRIRPPRLPRPRPRPVMLPRP | -0.776 |
| RRIRFRPPRLPRPRPRPPRSPRP | 0.488 |
| RRIRCRPPRLPRPRPRPMNRPRP | -0.35 |
| RRIRRRPPRLPRPRPRPPDYPRP | 0.244 |
| RRIRIRPPRLPRPRPRPHTGPRP | -0.356 |
| RRIRLRPPRLPRPRPRPHNMPRP | -0.495 |
| RRIRGRPPRLPRPRPRPSDEPRP | 0.178 |
| RRIRDRPPRLPRPRPRPLVTPRP | 0.486 |
| RRIRHRPPRLPRPRPRPKRWPRP | 0.293 |
| RRIRGRPPRLPRPRPRPLDWPRP | 1.07 |
| RRIRKRPPRLPRPRPRPYDGPRP | -0.0976 |
| RRIRWRPPRLPRPRPRPSTHPRP | 0.667 |
| RRIRPRPPRLPRPRPRPFQGPRP | -0.0115 |
| RRIRVRPPRLPRPRPRPRKKPRP | 0.0671 |
| RRIRMRPPRLPRPRPRPIRHPRP | 0.017 |
| RRIRMRPPRLPRPRPRPPWLPRP | 0.568 |
| RRIRMRPPRLPRPRPRPVFTPRP | 0.128 |
| RRIRCRPPRLPRPRPRPDSIPRP | -0.0365 |
| RRIRVRPPRLPRPRPRPARTPRP | 0.147 |
| RRIRMRPPRLPRPRPRPEMYPRP | 0.216 |
| RRIRQRPPRLPRPRPRPWITPRP | -0.0754 |
| RRIRVRPPRLPRPRPRPENMPRP | -0.0886 |
| RRIRKRPPRLPRPRPRPLKAPRP | 0.0198 |
| RRIRLRPPRLPRPRPRPDVVPRP | 0.0387 |
| RRIRLRPPRLPRPRPRPHNPPRP | -0.883 |

| Sequence | shrunken log2 fold change |
| --- | --- |
| RRIRFRPPRLPRPRPRPFGGPRP | -0.0524 |
| RRIRKRPPRLPRPRPRPVESPRP | 0.0629 |
| RRIRSRPPRLPRPRPRPHEHPRP | 0.113 |
| RRIRLRPPRLPRPRPRPDILPRP | -0.154 |
| RRIRYRPPRLPRPRPRPLGIPRP | -0.576 |
| RRIRERPPRLPRPRPRPMVWPRP | -0.0633 |
| RRIRARPPRLPRPRPRPGLSPRP | 0.821 |
| RRIRNRPPRLPRPRPRPCIKPRP | -0.207 |
| RRIRMRPPRLPRPRPRPYGHPRP | -0.0791 |
| RRIRPRPPRLPRPRPRPFTPPRP | -0.112 |
| RRIRGRPPRLPRPRPRPQFSPRP | 0.0687 |
| RRIRLRPPRLPRPRPRPDPPPRP | 0.337 |
| RRIRMRPPRLPRPRPRPCITPRP | 0.156 |
| RRIRKRPPRLPRPRPRPLRQPRP | 0.00205 |
| RRIRLRPPRLPRPRPRPCSKPRP | -0.0788 |
| RRIRWRPPRLPRPRPRPQLLPRP | 0.115 |
| RRIRARPPRLPRPRPRPYICPRP | -0.326 |
| RRIRERPPRLPRPRPRPAPTPRP | 0.199 |
| RRIRKRPPRLPRPRPRPEGYPRP | 0.0317 |
| RRIRDRPPRLPRPRPRPLGCPRP | 0.206 |
| RRIRYRPPRLPRPRPRPQSMPRP | -0.451 |
| RRIRWRPPRLPRPRPRPNMIPRP | -0.114 |
| RRIRWRPPRLPRPRPRPGCYPRP | -0.0343 |
| RRIRSRPPRLPRPRPRPYMIPRP | -1.11 |
| RRIRSRPPRLPRPRPRPVRKPRP | 0.324 |

| Sequence | shrunken log2 fold change |
| --- | --- |
| RRIRMRPPRLPRPRPRPFYYPRP | -0.527 |
| RRIRDRPPRLPRPRPRPRDIPRP | 0.0838 |
| RRIRDRPPRLPRPRPRPMEAPRP | -0.0266 |
| RRIRDRPPRLPRPRPRPCCNPRP | 0.255 |
| RRIRHRPPRLPRPRPRPIHMPRP | -0.141 |
| RRIRHRPPRLPRPRPRPSCSPRP | -0.876 |
| RRIRIRPPRLPRPRPRPLQQPRP | -0.293 |
| RRIRLRPPRLPRPRPRPFSYPRP | -0.747 |
| RRIRLRPPRLPRPRPRPINKPRP | -0.617 |
| RRIRTRPPRLPRPRPRPSRFPRP | 0.244 |
| RRIRIRPPRLPRPRPRPNPWPRP | -0.119 |
| RRIRNRPPRLPRPRPRPMVDPRP | -0.131 |
| RRIRYRPPRLPRPRPRPGQCPRP | 0.00338 |
| RRIRWRPPRLPRPRPRPADEPRP | 0.033 |
| RRIRDRPPRLPRPRPRPCGIPRP | 0.0258 |
| RRIRARPPRLPRPRPRPAGMPRP | 0.432 |
| RRIRHRPPRLPRPRPRPIPFPRP | 0.0406 |
| RRIRGRPPRLPRPRPRPKLNPRP | 0.69 |
| RRIRGRPPRLPRPRPRPKDQPRP | 0.843 |
| RRIRTRPPRLPRPRPRPVLCPRP | 0.0726 |
| RRIRTRPPRLPRPRPRPKGRPRP | -0.219 |
| RRIRMRPPRLPRPRPRPPMDPRP | 0.343 |
| RRIRKRPPRLPRPRPRPMLVPRP | -0.0603 |
| RRIRCRPPRLPRPRPRPIRFPRP | -0.27 |
| RRIRVRPPRLPRPRPRPQGEPRP | -0.227 |
